Assay results taken from PMC10720983.

Biological target: DtpM (dithiolopyrrolone methyltransferase) (Saccharothrix algeriensis)
Assay: SEC-MALS

stoichiometry N: 2
Substance: DtpM (dithiolopyrrolone methyltransferase) (enzyme)
